Laboratory results published in article PMC10600457.

Key:
Assay in all cases: SPR
[1] = biological target: FcγRIIA (UniProt P12318)
[2] = biological target: FcγRIIIA-158V
[3] = biological target: FcγRI (UniProt P12314)
[4] = biological target: FcγRIIB (UniProt P31994)
Sequence of UniProt P31994 (P31994 43-310): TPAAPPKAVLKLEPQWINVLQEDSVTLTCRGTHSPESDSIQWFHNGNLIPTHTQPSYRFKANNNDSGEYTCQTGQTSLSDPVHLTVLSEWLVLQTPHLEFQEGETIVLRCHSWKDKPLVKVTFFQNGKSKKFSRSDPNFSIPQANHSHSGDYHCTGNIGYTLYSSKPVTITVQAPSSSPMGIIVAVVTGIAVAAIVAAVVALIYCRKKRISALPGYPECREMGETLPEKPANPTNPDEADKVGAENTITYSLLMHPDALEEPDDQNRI

Sequence of UniProt P12314 (P12314 16-374): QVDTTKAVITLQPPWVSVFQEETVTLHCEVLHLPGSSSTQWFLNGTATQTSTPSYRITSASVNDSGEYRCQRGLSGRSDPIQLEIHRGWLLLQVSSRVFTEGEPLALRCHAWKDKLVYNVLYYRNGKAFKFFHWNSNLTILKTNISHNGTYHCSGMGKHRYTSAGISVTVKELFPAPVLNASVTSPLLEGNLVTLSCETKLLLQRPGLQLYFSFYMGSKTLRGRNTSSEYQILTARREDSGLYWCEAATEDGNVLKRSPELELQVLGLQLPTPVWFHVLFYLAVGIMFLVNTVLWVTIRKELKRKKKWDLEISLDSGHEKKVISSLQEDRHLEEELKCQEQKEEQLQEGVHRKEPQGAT

| Binder | Kd [1] [µM] | Kd [2] [µM] | Kd [3] [µM] | Kd [4] [µM] |
| --- | --- | --- | --- | --- |
| Nirsevimab (antibody, V domains shown) VH: QVQLVQSGAEVKKPGSSVMVSCQASGGLLEDYIINWVRQAPGQGPEWMGGIIPVLGTVHYGPKFQGRVTITADESTDTAYMELSSLRSEDTAMYYCATETALVVSETYLPHYFDNWGQGTLVTVSS VL: DIQMTQSPSSLSAAVGDRVTITCQASQDIVNYLNWYQQKPGKAPKLLIYVASNLETGVPSRFSGSGSGTDFSLTISSLQPEDVATYYCQQYDNLPLTFGGGTKVEIK | 9.3 | 2.11 | 0.0103 |  |
| MEDI8897*-TM (antibody, V domains shown) VH: QVQLVQSGAEVKKPGSSVMVSCQASGGLLEDYIINWVRQAPGQGPEWMGGIIPVLGTVHYGPKFQGRVTITADESTDTAYMELSSLRSEDTAMYYCATETALVVSETYLPHYFDNWGQGTLVTVSS VL: DIQMTQSPSSLSAAVGDRVTITCQASQDIVNYLNWYQQKPGKAPKLLIYVASNLETGVPSRFSGSGSGTDFSLTISSLQPEDVATYYCQQYDNLPLTFGGGTKVEIK | 34.4 | 5.15 | 0.24 |  |
| Palivizumab (antibody, V domains shown) VH: QVTLRESGPALVKPTQTLTLTCTFSGFSLSTSGMSVGWIRQPPGKALEWLADIWWDDKKDYNPSLKSRLTISKDTSKNQVVLKVTNMDPADTATYYCARSMITNWYFDVWGAGTTVTVSS VL: DIQMTQSPSTLSASVGDRVTITCKCQLSVGYMHWYQQKPGKAPKLLIYDTSKLASGVPSRFSGSGSGTEFTLTISSLQPDDFATYYCFQGSGYPFTFGGGTKLEIK | 2.78 | 0.882 | 0.00101 | 12.5 |
| MEDI8897* (antibody, V domains shown) VH: QVQLVQSGAEVKKPGSSVMVSCQASGGLLEDYIINWVRQAPGQGPEWMGGIIPVLGTVHYGPKFQGRVTITADESTDTAYMELSSLRSEDTAMYYCATETALVVSETYLPHYFDNWGQGTLVTVSS VL: DIQMTQSPSSLSAAVGDRVTITCQASQDIVNYLNWYQQKPGKAPKLLIYVASNLETGVPSRFSGSGSGTDFSLTISSLQPEDVATYYCQQYDNLPLTFGGGTKVEIK | 3.72 | 1.15 | 0.00124 | 13.5 |
